The target of the data set is AGO2 (miR-449a RISC) (mouse, UniProt Q8CJG0 1-860). Briefly: filter binding; titration regime, 0.5 nM target RNA (2.5 nM stock, 1 in 5), 37 C 1 h; stoichiometric point [RISC]/[target] 1.3 (77% active); no KD reported; Double filter binding (nitrocellulose/nylon), 5 uL reactions, 37 C for 1 h; compositions of Storage, Dilution and Reaction Mix buffers not given in material. The note with it: protein: recombinant; tags: FLAG; label: 5' 32P on target; guide:target seed pairing, guide nt 2-8 plus A opposite nt 1; rest of target single-stranded.
Chain of AGO2 (miR-449a RISC) (Q8CJG0 whole entry): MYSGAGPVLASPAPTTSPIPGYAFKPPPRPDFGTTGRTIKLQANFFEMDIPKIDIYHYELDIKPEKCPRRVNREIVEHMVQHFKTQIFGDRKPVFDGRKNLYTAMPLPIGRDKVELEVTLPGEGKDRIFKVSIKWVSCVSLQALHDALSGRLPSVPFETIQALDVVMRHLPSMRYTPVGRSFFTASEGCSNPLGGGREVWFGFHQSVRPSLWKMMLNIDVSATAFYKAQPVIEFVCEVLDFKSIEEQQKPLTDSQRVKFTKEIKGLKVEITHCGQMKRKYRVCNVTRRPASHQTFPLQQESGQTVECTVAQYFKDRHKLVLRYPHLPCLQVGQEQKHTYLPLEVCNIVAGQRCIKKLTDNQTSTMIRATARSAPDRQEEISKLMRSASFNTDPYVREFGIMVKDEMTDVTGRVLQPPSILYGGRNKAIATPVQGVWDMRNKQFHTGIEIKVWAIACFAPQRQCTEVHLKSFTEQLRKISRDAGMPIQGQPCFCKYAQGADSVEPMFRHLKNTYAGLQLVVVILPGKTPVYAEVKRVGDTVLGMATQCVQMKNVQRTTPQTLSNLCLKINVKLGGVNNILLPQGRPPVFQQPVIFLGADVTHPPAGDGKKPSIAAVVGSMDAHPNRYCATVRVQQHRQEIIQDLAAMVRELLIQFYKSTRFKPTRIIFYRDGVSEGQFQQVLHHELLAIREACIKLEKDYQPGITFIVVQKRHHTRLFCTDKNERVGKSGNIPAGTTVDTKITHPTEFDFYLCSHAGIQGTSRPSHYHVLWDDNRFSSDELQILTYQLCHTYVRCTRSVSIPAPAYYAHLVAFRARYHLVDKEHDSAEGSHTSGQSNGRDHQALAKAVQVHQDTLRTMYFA

Data on 1 molecule can be found in article PMC10276142, “Protocol to measure protein-RNA binding using double filter-binding assays followed by phosphorimaging or high-throughput sequencing”.

B1: miR-449a guide / 8mer-site target RNA (mixed)
RNA 1: UGGCAGUGUAUUGUUAGCUGGU
RNA 2: AUGAAAUCGAUAUCUAUCACUGCCAACU
modifications: guide 5'-phosphate; target 5' 32P-phosphate
As to B1, the binding result is listed as “binds”.
